# Results as given in PMC5985169, “Somatostatin Decorated Quantum Dots for Targeting of Somatostatin Receptors” (Iranian Journal of Pharmaceutical Research : IJPR, 2018).
# Test: HPLC analysis of SST before and after thiolation (elution time related to hydrophilicity)
# Assay type: physicochemical
# Details: chromatographic, C18 reversed-phase analytical column, linear gradient 26% to 39% acetonitrile in water with 0.1% TFA, 1.0 mL/min, detection at 274 nm
# Description: Then, thiolated-SST labeled with (1.5 eq) eosin-5-maleimide. Eosin-5-maleimide solution was mixed with thiolated-SST, the reactants were stirred at 600rpm for 30 min. The products were purified by running in Sephadex G-25 mini-column, and identified by thin layer chromatography. HPLC analysis was performed for SST using a linear gradient from 26% to 39% acetonitrile in water, with 0.1% TFA as mobile phase at a flow rate of 1.0 mL/min using a C18-reversed phase analytical column.
# The thiolation of SST was investigated using HPLC. […] The single peak eluted at about 19 min corresponded to SST. Thiolated-SST eluted at 18.6 min. The signal consists of multiple neighbouring peaks, these neighbouring peaks appeared between 20.5 and 23 min (Figure 7) and could be related to SST in isomerized form. Neither thiolated-SST nor SST degradation products were detected. Thiolated-SST eluted earlier than SST which is related to the increase in hydrophilicity.
# Figure 7 HPLC chromatographs of SST reacted with Traut´s reagent. Signals were detected at 274 nm. Single peak eluted at about 19 min corresponded to SST. Thiolated-SST eluted at 18.6 min.
substance,measurement,value
Somatostatin acetate [SST],HPLC elution time (earlier elution related to increase in hydrophilicity),about 19 min
Thiolated-SST: SST thiolated using Traut's reagent,HPLC elution time (earlier elution related to increase in hydrophilicity),18.6 min
